Values belong to the compound of their own block, whether it stands above or below them.
Legend:
[1] = molecular target: backbone-cyclized YibK from Pseudomonas aeruginosa with a nine-residue linker (sortase A ligation of PaYibK_lo) (Pseudomonas aeruginosa); assay: SEC-SAXS; native conditions: buffer A (50 mM Tris-HCl pH 7.4, 0.5 mM EDTA, 5 mM DTT) without urea, 2% glycerol; protein at 10 mg/ml; online size-exclusion column (Bio SEC-3)
[2] = molecular target: wild-type YibK from Pseudomonas aeruginosa in its linear form (Pseudomonas aeruginosa); assay: crystal structure; PaYibK: 0.15 M ammonium sulfate, 0.9 M lithium sulfate, 0.1 M sodium citrate pH 5.6, 2.0 Å; cYibK: 0.3 M ammonium sulfate, 0.1 M MES pH 6.0, 25% PEG MME 5,000, 2.2 Å
[3] = molecular target: linear form of YibK from Pseudomonas aeruginosa with the identical sequence as PaYibK_lo / cYibK (Pseudomonas aeruginosa); assay: SEC-SAXS; native conditions: buffer A (50 mM Tris-HCl pH 7.4, 0.5 mM EDTA, 5 mM DTT) without urea, 2% glycerol; protein at 10 mg/ml; online size-exclusion column (Bio SEC-3)
lYibK (linear PaYibK_lo) = molecular target: T1, lYibK (linear PaYibK_lo) (Pseudomonas aeruginosa, UniProt Q9HU57); assay: isothermal titration calorimetry; assay type: binding
T1 construct: gene trmL; recombinant in E. coli ER2566 from pBHRSF260, N-terminal His-SUMO fusion cut by Ulp1; homodimer
T1 sequence (Q9HU57 1-153): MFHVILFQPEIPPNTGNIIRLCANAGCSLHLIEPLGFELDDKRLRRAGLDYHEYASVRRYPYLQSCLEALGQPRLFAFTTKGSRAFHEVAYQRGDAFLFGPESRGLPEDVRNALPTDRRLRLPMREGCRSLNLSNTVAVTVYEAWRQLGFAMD

[4] = molecular target: T2, cYibK (cYibK_lo, backbone-cyclized PaYibK) (Pseudomonas aeruginosa, UniProt Q9HU57); assay: isothermal titration calorimetry; assay type: binding
T2 construct: gene trmL; recombinant in E. coli ER2566 from pITRSF3D (SUMO fusion cut, LPETG-H6), N and C termini joined by S. aureus sortase A through a nine-residue linker, His-tag removed by ligation; backbone-cyclized, homodimer

Compound: backbone-cyclized YibK from Pseudomonas aeruginosa with a nine-residue linker (sortase A ligation of PaYibK_lo) (enzyme)
- stoichiometry N [1]: 2

- stoichiometry N [2]: 2
Compound: wild-type YibK from Pseudomonas aeruginosa in its linear form (enzyme)

Compound: linear form of YibK from Pseudomonas aeruginosa with the identical sequence as PaYibK_lo / cYibK (enzyme)
- stoichiometry N [3]: 2

Compound: Nc1ncnc2c1ncn2[C@@H]1O[C@H](CSCC[C@H](N)C(=O)O)[C@@H](O)[C@H]1O [S-adenosyl-L-homocysteine]
- Kd (lYibK (linear PaYibK_lo)): 8.8 ± 0.01 µM
- Kd [4]: 8.93 ± 0.03 µM

Reference: publication PMC8182377, “Tying up the Loose Ends: A Mathematically Knotted Protein” (Frontiers in Chemistry, 2021)
